Like-named read-outs stand apart in the source and are kept apart here.
Key:
[1] = biological target: T1, human TPBG (trophoblast glycoprotein), full length, cell surface expressed (human, UniProt Q13641 32-420)
T1 sequence: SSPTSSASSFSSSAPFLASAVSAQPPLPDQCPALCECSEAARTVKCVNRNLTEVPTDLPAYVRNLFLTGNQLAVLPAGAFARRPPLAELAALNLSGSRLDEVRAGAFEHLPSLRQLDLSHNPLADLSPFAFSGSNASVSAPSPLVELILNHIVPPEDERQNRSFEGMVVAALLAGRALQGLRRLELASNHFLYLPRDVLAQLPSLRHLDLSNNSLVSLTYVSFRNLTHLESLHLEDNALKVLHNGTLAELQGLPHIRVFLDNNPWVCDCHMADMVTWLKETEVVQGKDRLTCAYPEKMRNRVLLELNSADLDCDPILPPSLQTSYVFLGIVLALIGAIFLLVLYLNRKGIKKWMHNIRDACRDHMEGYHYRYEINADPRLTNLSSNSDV

[2] = biological target: T1, human TPBG (trophoblast glycoprotein), …; assay: cell-based or functional assay
[3] = biological target: T2, minipig TPBG, full length, cell surface expressed on CHO-K1 cells (minipig); assay: cell-based or functional assay
T2 chain: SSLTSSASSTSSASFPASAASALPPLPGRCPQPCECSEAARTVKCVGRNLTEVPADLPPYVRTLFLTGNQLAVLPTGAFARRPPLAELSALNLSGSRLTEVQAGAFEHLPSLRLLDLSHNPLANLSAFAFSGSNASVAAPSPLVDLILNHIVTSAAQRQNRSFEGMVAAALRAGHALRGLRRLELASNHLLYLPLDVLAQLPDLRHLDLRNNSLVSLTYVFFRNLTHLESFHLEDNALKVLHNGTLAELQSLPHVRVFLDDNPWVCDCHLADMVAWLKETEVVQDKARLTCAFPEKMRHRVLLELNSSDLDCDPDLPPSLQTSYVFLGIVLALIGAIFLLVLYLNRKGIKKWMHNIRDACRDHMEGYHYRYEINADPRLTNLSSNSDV

[4] = biological target: T1, human TPBG (trophoblast glycoprotein), …; assay: cell-based or functional assay; remark: listed apart in the source
[5] = biological target: T1, human TPBG (trophoblast glycoprotein), …; assay: cell-based or functional assay; remark: listed apart in the source
[6] = biological target: T1, human TPBG (trophoblast glycoprotein), …; assay: cell-based or functional assay; remark: listed apart in the source
[7] = biological target: T1, human TPBG (trophoblast glycoprotein), …; assay: cell-based or functional assay; remark: listed apart in the source
[8] = biological target: T3, huTPBG (recombinant human TPBG immobilised on the Biacore chip) (human, UniProt Q13641 32-355, limits assumed); assay: SPR Biacore T200; huTPBG amine-coupled, Fab-PE injected; pH 5.5
T3 construct: also called human TPBG antigen
T3 sequence: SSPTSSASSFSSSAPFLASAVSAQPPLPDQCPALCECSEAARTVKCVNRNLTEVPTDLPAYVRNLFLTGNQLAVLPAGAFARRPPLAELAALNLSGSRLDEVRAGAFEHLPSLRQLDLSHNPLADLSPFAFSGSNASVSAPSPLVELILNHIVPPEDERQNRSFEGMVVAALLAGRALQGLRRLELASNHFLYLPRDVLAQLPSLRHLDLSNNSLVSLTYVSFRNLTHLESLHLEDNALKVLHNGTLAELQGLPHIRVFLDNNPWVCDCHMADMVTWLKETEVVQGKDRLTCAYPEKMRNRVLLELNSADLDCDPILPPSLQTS

[9] = biological target: T3, huTPBG (recombinant human TPBG …); assay: SPR Biacore T200; huTPBG amine-coupled, Fab-PE injected; pH 7.4
[10] = biological target: T1, human TPBG (trophoblast glycoprotein), …; assay: flow cytometry on CHO-K1 stably expressing human TPBG; Fab-PE fusion
[11] = biological target: T2, minipig TPBG, full length, cell surface …; assay: flow cytometry on CHO-K1 stably expressing minipig TPBG; Fab-PE fusion

B1: anti-TPBG 097 Fab-PE fusion protein (refolded from E. coli inclusion bodies) (Fab)
heavy: MEVQLLESGGGLAQPGGSLRLSCAASGFTFNNDAMTWVRQAPGKGLEWVSAISGSGGSTYYADSVKGRFTISRDNSKNTLYLQMNSLRAEDTAVYYCAKGGSWGDWYYYFYPMDVWGQGTTVTVSSASTKGPSVFPLAPSSKSTSGGTAALGCLVKDYFPEPVTVSWNSGALTSGVHTFPAVLQSSGLYSLSSVVTVPSSSLGTQTYICNVNHKPSNTKVDKKVEPKSCDKTHKASGGRHRQPRGWEQLGGGGGSPTGAEFLGDGGDVSFSTRGTQNWTVERLLQAHAQLEERGYVFVGYHGTFLEAAQSIVFGGVAARSQDLAAIWAGFYIAGDPALAYGYAQDQEPDAAGRIRNGALLRVYVPASSLPGFYRTSLTLAAPEAAGEVERLIGHPLPLALDAITGPEEEGGRLETILGWPLAERTVVIPSAIPTDPRNVGGDLDPSSIPDKEQAISALPDYASQPGKPPREDLK
light: not shown
notes: also called Fab-PE comprising antibody 097
[1]
  EC50: 0.64 nM
[2]
  EC50 cytotoxicity, Fab-PE fusion, stable CHO-K1 huTPBG: 0.04 nM
[3]
  EC50 cytotoxicity, Fab-PE fusion, stable CHO-K1 pgTPBG: 0.14 nM
  X-fold lower potency pgTPBG versus huTPBG: 3.4 fold
[4]
  EC50 cytotoxicity, Fab-PE fusion, H1975, replicate 1: 0.013 nM
  EC50 cytotoxicity, Fab-PE fusion, H1975, replicate 2: 0.013 nM
[5]
  EC50 proliferation, H1975, 10 min exposure: 0.211 nM
  EC50 proliferation, H1975, 30 min exposure: 0.189 nM
  EC50 proliferation, H1975, 60 min exposure: 0.203 nM
  EC50 proliferation, H1975, continuous exposure: 0.013 nM
[6]
  X-fold higher potency than Fab-PE fusion protein of H8, H1975, 10 min: 0.9 fold
  X-fold higher potency than Fab-PE fusion protein of H8, H1975, 30 min: 0.9 fold
  X-fold higher potency than Fab-PE fusion protein of H8, H1975, 60 min: 1.1 fold
  X-fold higher potency than Fab-PE fusion protein of H8, H1975, continuous: 1.1 fold
[7]
  EC50 protein synthesis inhibition (luciferase), BxPC-3, replicate 1: 0.022 nM
  EC50 protein synthesis inhibition (luciferase), BxPC-3, replicate 2: 0.008 nM
[8]
  Kd: 7.49 nM
  koff: 0.00605 s⁻¹
  kon: 808000 M⁻¹ s⁻¹
[9]
  Kd: 1.97 nM
  koff: 0.00121 s⁻¹
  kon: 614000 M⁻¹ s⁻¹
[10]
  EC50: 5.6 nM
[11]
  EC50: 15.4 nM

B2: anti-TPBG 091 Fab-PE fusion protein (refolded from E. coli inclusion bodies) (Fab)
heavy: MEVHLLESGGGLVHPGGSLRLSCAASGFTFRSDAMHWVRQAPGKGLEWVSGVSGSGGSPYYADSVKGRFTISRDDSKTTLYLQMNSLRAEDTAVYYCATGGSIAGSYYYYPMDVWGQGTTVTVSSASTKGPSVFPLAPSSKSTSGGTAALGCLVKDYFPEPVTVSWNSGALTSGVHTFPAVLQSSGLYSLSSVVTVPSSSLGTQTYICNVNHKPSNTKVDKKVEPKSCDKTHKASGGRHRQPRGWEQLGGGGGSPTGAEFLGDGGDVSFSTRGTQNWTVERLLQAHAQLEERGYVFVGYHGTFLEAAQSIVFGGVAARSQDLAAIWAGFYIAGDPALAYGYAQDQEPDAAGRIRNGALLRVYVPASSLPGFYRTSLTLAAPEAAGEVERLIGHPLPLALDAITGPEEEGGRLETILGWPLAERTVVIPSAIPTDPRNVGGDLDPSSIPDKEQAISALPDYASQPGKPPREDLK
light: not shown
notes: also called Fab-PE comprising antibody 091
[1]
  EC50: 0.89 nM
[2]
  EC50 cytotoxicity, Fab-PE fusion, stable CHO-K1 huTPBG: 0.05 nM
[3]
  EC50 cytotoxicity, Fab-PE fusion, stable CHO-K1 pgTPBG: 0.15 nM
  X-fold lower potency pgTPBG versus huTPBG: 3.3 fold
[4]
  EC50 cytotoxicity, Fab-PE fusion, H1975, replicate 1: 0.005 nM
  EC50 cytotoxicity, Fab-PE fusion, H1975, replicate 2: 0.003 nM
[5]
  EC50 proliferation, H1975, 10 min exposure: 0.057 nM
  EC50 proliferation, H1975, 30 min exposure: 0.062 nM
  EC50 proliferation, H1975, 60 min exposure: 0.043 nM
  EC50 proliferation, H1975, continuous exposure: 0.003 nM
[6]
  X-fold higher potency than Fab-PE fusion protein of H8, H1975, 10 min: 4 fold
  X-fold higher potency than Fab-PE fusion protein of H8, H1975, 30 min: 3.3 fold
  X-fold higher potency than Fab-PE fusion protein of H8, H1975, 60 min: 4.2 fold
  X-fold higher potency than Fab-PE fusion protein of H8, H1975, continuous: 3.7 fold
[7]
  EC50 protein synthesis inhibition (luciferase), BxPC-3, replicate 1: 0.014 nM
  EC50 protein synthesis inhibition (luciferase), BxPC-3, replicate 2: 0.007 nM
[8]
  Kd: 8.89 nM
  koff: 0.00201 s⁻¹
  kon: 226000 M⁻¹ s⁻¹
[9]
  Kd: 0.461 nM
  koff: 0.000129 s⁻¹
  kon: 280000 M⁻¹ s⁻¹
[10]
  EC50: 8.5 nM
[11]
  EC50: 10.8 nM

B3: anti-TPBG 051 Fab-PE fusion protein (refolded from E. coli inclusion bodies) (Fab)
heavy: MEVQLLESGGGLLQPGGSLRLSCAASGFTFSIYWMTWVRQAPGKGLEWVSAISGSGGSTYYADSVKGRFTISRDNSKNTLYLQMNSLRAEDTAVYYCAKDYYSNVYWGQGTLVTVSSASTKGPSVFPLAPSSKSTSGGTAALGCLVKDYFPEPVTVSWNSGALTSGVHTFPAVLQSSGLYSLSSVVTVPSSSLGTQTYICNVNHKPSNTKVDKKVEPKSCDKTHKASGGRHRQPRGWEQLGGGGGSPTGAEFLGDGGDVSFSTRGTQNWTVERLLQAHAQLEERGYVFVGYHGTFLEAAQSIVFGGVAARSQDLAAIWAGFYIAGDPALAYGYAQDQEPDAAGRIRNGALLRVYVPASSLPGFYRTSLTLAAPEAAGEVERLIGHPLPLALDAITGPEEEGGRLETILGWPLAERTVVIPSAIPTDPRNVGGDLDPSSIPDKEQAISALPDYASQPGKPPREDLK
light: MDIQMTQSPSSVSASVGDRVTITCRASQGIYSWLAWYQQKPGKAPKLLIYAASSLQSGVPSRFSGSGSGTDFTLTISSLQPEDFATYYCQQSDSPPYTFGQGTKLEIKRTVAAPSVFIFPPSDEQLKSGTASVVCLLNNFYPREAKVQWKVDNALQSGNSQESVTEQDSKDSTYSLSSTLTLSKADYEKHKVYACEVTHQGLSSPVTKSFNRGEC
notes: also called Fab-PE comprising antibody 051
[1]
  EC50: 1.25 nM
[2]
  EC50 cytotoxicity, Fab-PE fusion, stable CHO-K1 huTPBG: 0.03 nM
[3]
  EC50 cytotoxicity, Fab-PE fusion, stable CHO-K1 pgTPBG: 1.37 nM
  X-fold lower potency pgTPBG versus huTPBG: 51.7 fold
[4]
  EC50 cytotoxicity, Fab-PE fusion, H1975, replicate 1: 0.016 nM
  EC50 cytotoxicity, Fab-PE fusion, H1975, replicate 2: 0.014 nM
[5]
  EC50 proliferation, H1975, 10 min exposure: 0.241 nM
  EC50 proliferation, H1975, 30 min exposure: 0.204 nM
  EC50 proliferation, H1975, 60 min exposure: 0.18 nM
  EC50 proliferation, H1975, continuous exposure: 0.014 nM
[6]
  X-fold higher potency than Fab-PE fusion protein of H8, H1975, 10 min: 1.1 fold
  X-fold higher potency than Fab-PE fusion protein of H8, H1975, 30 min: 1 fold
  X-fold higher potency than Fab-PE fusion protein of H8, H1975, 60 min: 1 fold
  X-fold higher potency than Fab-PE fusion protein of H8, H1975, continuous: 1.1 fold
[7]
  EC50 protein synthesis inhibition (luciferase), BxPC-3, replicate 1: 0.027 nM
  EC50 protein synthesis inhibition (luciferase), BxPC-3, replicate 2: 0.015 nM
[8]
  Kd: 0.292 nM
  koff: 0.000113 s⁻¹
  kon: 386000 M⁻¹ s⁻¹
[9]
  Kd: 0.121 nM
  koff: 3.46e-05 s⁻¹
  kon: 286000 M⁻¹ s⁻¹
[10]
  EC50: 12.4 nM
[11]
  EC50: 16.9 nM
